# Test results: paper PMC12062102, “Dual Targeting of Neuropilin-1 and Glucose Transporter for Efficient Fluorescence Imaging of Cancer” (Molecular Imaging and Biology, 2025)
# Legend:
# [1] = Method: Probe NGF (10 μM) was added to a mixture of H2O (0.5 mL) and n-octanol (0.5 mL), shaken thoroughly, and centrifuged for 3 min. The absorbance (A) of NGF in both H2O and n-octanol was measured using a UV-vis absorption spectrometer.
# [2] = Aqueous stability of NGF in PBS; type: physicochemical; details: 3 μM in PBS, 37°C, 48 h incubation, UV-vis absorbance A/A0
# [3] = 3 μM in 10% (v/v) mouse serum, 37°C, 48 h incubation, UV-vis absorbance A/A0
# Method: NGF solution (3 μM) was prepared in PBS and 10% (v/v) mouse serum, and the initial absorbance (A0) was measured. Then NGF was incubated with PBS and mouse serum at 37°C, and the absorbance (A) was recorded at 4, 8, 12, 24, and 48 h, respectively. The stability of the probe was evaluated based on the ratio of A/A0. For the photostability, NGF solution (3 μM) was prepared in methanol, and the initial absorbance (A0) was measured. Then NGF was then subjected to laser irradiation, and the absorbance measurements (A) were recorded at 5, 10, 15, 20, and 30 min, respectively. The stability of the probe was evaluated based on the ratio of A/A0.
# [4] = Photostability of NGF under laser irradiation; type: physicochemical; details: 3 μM in methanol, laser irradiation 30 min, UV-vis absorbance A/A0
# [5] = Photophysical properties (absorption, emission, ε, ΦF); type: physicochemical
# Method: To investigate the spectral characteristics of probe, NGF (25 μM) was prepared using methanol, and the NGF stock solution was diluted to various concentrations (0.5, 1, 2, 3, and 4 μM) with both methanol or water as solvents. The absorption spectra at various concentrations were recorded using a UV–vis absorption spectrometer. To better understand how the solvent affects the fluorescence properties of NGF, the fluorescence emission spectra of 4 μM NGF were analyzed in both methanol and water. The molar absorption coefficient (ε), fluorescence quantum yield (ΦF), as well as the stability of NGF were investigated, and the details were provided in the Supporting Information.
# where, Ix is the measured integrated emission intensity; η is the refractive index of the solvent; A is the absorbance of the solution; the subscript x denotes the probe; st denotes the reference compound.
# [6] = system: MDA-MB-231 cells; assay: Flow cytometry / confocal imaging and blocking study in MDA-MB-231 cells; type: cell-based, human
# Method: (§1) MDA-MB-231, HCT116, and NCI-H1299 cells in logarithmic growth phase were seeded in 6-well plate and incubated at 37 ℃ in a 5% CO2 humidified incubator for 12 h, then the cells were fixed with 4% paraformaldehyde containing 1% TritonX-100 overnight at 4 ℃. Next, cells were treated with NGF (2 μM) for 1 h, stained with DAPI for 5 min, and finally the fluorescent images were captured using laser scanning fluorescence confocal microscopy (Olympus IX51). Images were captured using a U-LH100 HG mercury lamp with a WIY (Cy5 channel) filter and a 200 ms exposure time. A 10 × eyepiece and a 20 × objective were used for a total magnification of 200 × . A scale bar of 50 μm was included for reference.
# (§2) Cancer cells MDA-MB-231, NCI-H1299 and HCT116 in logarithmic growth phase were harvested and transferred to sterile tubes with DMEM medium at a density of 2 × 10^5 cells per tube. […] Subsequently, the cells were resuspended in 0.5 mL of PBS buffer, and about 2 × 10^4 target cells were extracted for flow cytometry analysis (FACS Verse, BD) with FL4 channel, and the mean fluorescence intensity was quantified using FlowJo software.
# (§3) For the blocking study, the cells of HCT116, NCI-H1299, and MDA-MB-231 were pretreated with the D-glucose (50 μM), NRP1 peptide (50 μM), and D-glucose + NRP1 peptide (50 μM) for 30 min. […] Then the fluorescence signals were detected by flow cytometry and microscopy imaging.
# [7] = system: HCT116 cells; assay: Flow cytometry / confocal imaging and blocking study in HCT116 cells; type: cell-based, human
# Method: as §1, §2, §3
# [8] = system: NCI-H1299 cells; assay: Confocal fluorescence imaging in NCI-H1299 cells; type: cell-based, human; details: NCI-H1299 (NRP1- and GLUT1-negative), NGF 2 μM, 1 h
# Method: as §1
# Cancer cells MDA-MB-231, NCI-H1299 and HCT116 in logarithmic growth phase were harvested and transferred to sterile tubes with DMEM medium at a density of 2 × 10^5 cells per tube. Various concentrations of NGF (0.125, 0.25, 0.5, 1, and 2 μM) were added, and the cells were incubated in a humidified incubator with 5% CO2 at 37 ℃ for 1 h. Subsequently, the cells were resuspended in 0.5 mL of PBS buffer, and about 2 × 10^4 target cells were extracted for flow cytometry analysis (FACS Verse, BD) with FL4 channel, and the mean fluorescence intensity was quantified using FlowJo software.
# [9] = system: MDA-MB-231 tumor; assay: In vivo IVIS fluorescence imaging, MDA-MB-231 tumor-bearing mice; set-up: species or system Balb/c nude mice; details: 25 μM NGF, 200 μL i.v., imaging up to 72 h
# Method: (§4) The SPF female Balb/c nude mice (4–5 weeks old) were obtained from Changzhou Cavens Laboratory Animal Co., LTD (Changzhou, China). Tumor models were created by subcutaneously injecting 0.5 ~ 1 × 10^7 MDA-MB-231, HCT116 or NCI-H1299 cells in 100 μL PBS into the right forelimb of the nude mice. Imaging studies were conducted once the tumor volume reached approximately 100 mm^3. All animal experiments requiring the use of mice were approved by the animal care committee of Shanghai University (ECSHU 2024–004).
# (§5) Animal fluorescence imaging was conducted using an IVIS Imaging spectroscopy system (PerkinElmer Inc., USA). MDA-MB-231, HCT116, and NCI-H1299 tumor-bearing mice (n = 3–5) were intravenously injected with 25 μM NGF (200 μL) via the tail vein. Following injection, mice were anesthetized with a 2% v/v isoflurane/oxygen mixture at a flow rate of […] to maintain stable physiological conditions during imaging. Subsequently, long-term optical imaging observations of tumor-bearing mice were performed using the IVIS Spectrum imaging system (PerkinElmer, USA). Imaging scans were conducted at various time points (1, 2, 4, 6, 8, 12, 24, 36, 48, 60, and 72 h) after NGF administration. The excitation wavelength (λex) was set to 745 nm and the emission wavelength (λem) was set to 840 nm for optimal fluorescence signal acquisition.
# [10] = system: HCT116 tumor; assay: In vivo IVIS fluorescence imaging, HCT116 tumor-bearing mice; set-up: species or system Balb/c nude mice; details: 25 μM NGF
# Method: as §4, §5
# [11] = system: NCI-H1299 tumor; assay: In vivo IVIS fluorescence imaging, NCI-H1299 tumor-bearing mice; set-up: species or system Balb/c nude mice; details: 25 μM NGF, 200 μL i.v., n = 3–5
# Method: as §4, §5
# [12] = In vivo IVIS fluorescence imaging, signal clearance and persistence in tumor-bearing mice; set-up: species or system Balb/c nude mice; details: 25 μM NGF, 200 μL i.v.
# Method: as §4, §5
smiles,measurement,setting,value
CC(C)C[C@H](NC(=O)[C@H](C)NC(=O)CCOCCOCCOCCOCCn1cc(CCC[N+]2=C(C=CC3=C(Cl)C(=CC=C4N(CCCc5cn([C@H]6C(O)O[C@H](CO)[C@@H](O)[C@@H]6O)nn5)c5ccccc5C4(C)C)CCC3)C(C)(C)c3ccccc32)nn1)C(=O)N[C@@H](CCCCN)C(=O)N[C@@H](C)C(=O)N[C@@H](CC(=O)O)C(=O)N[C@@H](CCCCN)C(=O)O (some centres unmarked) [NGF],logP,[1],-0.95 ± 0.07
same,absorbance as % of initial absorbance (A0) in PBS,[2],97.7%
same,absorbance as % of initial absorbance (A0) in 10% mouse serum,[3],95.2%
same,absorbance as % of A0 after laser irradiation,[4],56.7%
same,fluorescence intensity in methanol,[5]; 4 μM in methanol,12365 a.u.
same,maximum absorbance,[5]; 4 μM in methanol,1.06
same,absorption peak (λmax) in MeOH,[5]; MeOH,783 nm
same,fluorescence emission peak (λem) in MeOH,"[5]; MeOH, λex = 750 nm",807 nm
same,aggregation in aqueous solution,[5]; inferred from lower absorbance and fluorescence in H2O than in MeOH,some degree of aggregation
same,extinction coefficient ε in n-octanol,[5]; n-octanol,124367 M⁻¹ cm⁻¹
same,uptake relative to mono-receptor block conditions,"[6]; MDA-MB-231, NGF 2 μM 1 h, pre-treatment 30 min with D-glucose (50 μM) or NRP1 peptide (50 μM), flow cytometry mean fluorescence intensity",1.7–2.5 times
same,cellular internalization (confocal fluorescence),"[6]; MDA-MB-231, NGF 2 μM, 1 h",significantly internalized
same,uptake relative to mono-receptor block conditions,"[7]; HCT116, NGF 2 μM 1 h, pre-treatment 30 min with D-glucose (50 μM) or NRP1 peptide (50 μM), flow cytometry mean fluorescence intensity",1.4–1.5 times
same,cellular internalization (confocal fluorescence),"[7]; HCT116, NGF 2 μM, 1 h",substantial internalization
same,cellular fluorescence (confocal),[8],minimal fluorescence
same,retention in tumor post-injection,[9],at least 72 h
same,time post-injection at which tumor could be clearly identified,"[10]; 200 μL i.v. tail vein, n = 3–5, λex 745 nm / λem 840 nm",1 h
same,retention in tumor post-injection,"[10]; 200 μL i.v., imaging up to 72 h",at least 72 h
same,tumor fluorescence intensity,[11],comparatively weak
same,time for fluorescent signal to clear from non-target organs,[12],≤ 12 h
